Experimental findings from US20170283484A1 (UNITED KINGDOM RESEARCH AND INNOVATION, published 2017) are described below.

Where two headings read alike, the source gives them in different places.

Assay [1] deals with AP33 antibody (wild type mouse monoclonal).
Assay [2] has as its target T1, AP33 antibody (wild type mouse monoclonal).
T1 construct: also called WT AP33; Ab1
Description: SPR, B2.1A scFv amine-coupled to CM4 chip, AP33 injected, single-cycle kinetics. For orientation: In SPR one partner is held on a chip, and binding of the other changes the refractive index at the surface.

Assay [3] concerns the target T1, AP33 antibody (wild type mouse …). The assay can be described thus: SPR, B2.1A scFv amine-coupled to CM5 chip, AP33 injected, single-cycle kinetics.
A further assay concerns the target T2, AP33 light-chain alone (Mus musculus (Mouse), UniProt P01661 21-131).
T2 construct: also called AP33 LC; LC
The assay can be described thus: Ab2 binding screen.

Assay [4] has as its target T1, AP33 antibody (wild type mouse …). Description: Ab2 binding screen.
The target of assay [5] is HCV E2 envelope glycoprotein (hepatitis C virus, UniProt P27958 384-746). The assay can be described thus: ELISA of E2 on AP33 alanine mutants. (In general: In an ELISA, binding on a coated surface is turned into a signal by an enzyme label.)
Chain of HCV E2 envelope glycoprotein (P27958 384-746 limits assumed): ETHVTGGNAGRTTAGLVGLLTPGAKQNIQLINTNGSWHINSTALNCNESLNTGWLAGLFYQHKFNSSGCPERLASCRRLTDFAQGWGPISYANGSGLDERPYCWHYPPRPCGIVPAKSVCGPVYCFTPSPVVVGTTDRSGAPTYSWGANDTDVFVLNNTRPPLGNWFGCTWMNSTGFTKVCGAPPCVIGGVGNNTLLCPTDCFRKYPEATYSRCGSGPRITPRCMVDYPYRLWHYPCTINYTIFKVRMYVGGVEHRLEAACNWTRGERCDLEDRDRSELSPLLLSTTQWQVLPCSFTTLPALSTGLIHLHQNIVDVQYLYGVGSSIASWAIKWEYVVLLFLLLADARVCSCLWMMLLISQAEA

B1: B2.1A scFv (scFv)
scFv: DANSQVQLQESGTELVKPGASVKLSCKASGYTFTNYWMHWVKQRPGQGLEWIGEINPSDGHTNYNEKFKSKATLTVDKSSSTAYMQLSSLTSEDSAVYYCARPWAFGNYGAWFAYWGQGTLVTVSAGGSGGSGGGGSGGGGSGGGASDIVMTQSPKFMSTSVGDRVSITCKASQNVRTAVAWYQQKPGQSPKALIYLASSRHTGVPDRFTGSGSGTDFTLTISNVQSEDLADYFCLQHWNYPYTFGGGTKLEIKSRHHHHHH
notes: also called single-chain variable fragment (scFv) of B2.1A; Ab2
One may read the Kd as a measure of binding affinity in units of concentration. A low value points to higher affinity. What is called koff is the rate constant with which the complex falls apart. One may read the kon as the second-order rate constant of association. Lower therefore signals slower complex formation. In assay [1], B1 returned a dissociation constant (Kd) of 8 nM, a koff of 0.00039 s⁻¹ and a kon of 48700 M⁻¹ s⁻¹. For the same molecule, in assay [2], binding was characterised by a dissociation constant (Kd) of 20.7 nM, the koff stood at 0.000243 s⁻¹ and the kon worked out at 11800 M⁻¹ s⁻¹. Also, in assay [3], binding was characterised by a dissociation constant (Kd) of 28.6 nM, the koff was 0.000321 s⁻¹ and the kon came out at 11200 M⁻¹ s⁻¹.

B2: B2.1A antibody (antibody, V domains shown)
VH: QVQLQESGTELVKPGASVKLSCKASGYTFTNYWMHWVKQRPGQGLEWIGEINPSDGHTNYNEKFKSKATLTVDKSSSTAYMQLSSLTSEDSAVYYCARPWAFGNYGAWFAYWGQGTLVTVSA
VL: DIVMTQSPKFMSTSVGDRVSITCKASQNVRTAVAWYQQKPGQSPKALIYLASSRHTGVPDRFTGSGSGTDFTLTISNVQSEDLADYFCLQHWNYPYTFGGGTKLEIKR
notes: also called anti-Id B2.1A; Ab2
For B2, the results for the binding result (with AP33 light-chain alone; in assay [4]) were “no binding” and “binds”, respectively.

B3: AP33 mutant YH50A (antibody, V domains shown)
VH: EVQLQESGPSLVKPSQTLSLTCSVTGDSITSGYWNWIRKFPGNKLEYMGAISYSGSTYYNLSLRSRISITRDTSKNQYYLQLNSVTTEDTATYYCALITTTTYAMDYWGQGTSVTVS
VL: NIVLTQSPVSLAVSLGQRATISCRASESVDGYGNSFLHWFQQKPGQPPKLLIYLASNLNSGVPARFSGSGSRTDFTLTIDPVEADDAATYYCQQNNVDPWTFGGGTKLEIK
Consider B3, for which, in assay [5], the “reduction of binding relative to WT AP33” value was found to be 90%.

B4: AP33 mutant YH100A (antibody, V domains shown)
VH: EVQLQESGPSLVKPSQTLSLTCSVTGDSITSGYWNWIRKFPGNKLEYMGYISYSGSTYYNLSLRSRISITRDTSKNQYYLQLNSVTTEDTATYYCALITTTTAAMDYWGQGTSVTVS
VL: NIVLTQSPVSLAVSLGQRATISCRASESVDGYGNSFLHWFQQKPGQPPKLLIYLASNLNSGVPARFSGSGSRTDFTLTIDPVEADDAATYYCQQNNVDPWTFGGGTKLEIK
As to B4, the “reduction of binding relative to WT AP33” value in assay [5] was 90%.
